Reference: US11040083B2, “Polypeptides comprising vinculin binding sites for the treatment of proliferation and/or adhesion related diseases” (PARIS SCIENCES ET LETTRES—QUARTIER LATIN, priority 2015, dated 2021)
Like-named read-outs stand apart in the source and are kept apart here.

T1: full-length vinculin (HV) (Homo sapiens, UniProt P18206)
T1 construct: with full-length vinculin (HV) in solid phase assays
T1 sequence (P18206 1-1066 isoform P18206-2): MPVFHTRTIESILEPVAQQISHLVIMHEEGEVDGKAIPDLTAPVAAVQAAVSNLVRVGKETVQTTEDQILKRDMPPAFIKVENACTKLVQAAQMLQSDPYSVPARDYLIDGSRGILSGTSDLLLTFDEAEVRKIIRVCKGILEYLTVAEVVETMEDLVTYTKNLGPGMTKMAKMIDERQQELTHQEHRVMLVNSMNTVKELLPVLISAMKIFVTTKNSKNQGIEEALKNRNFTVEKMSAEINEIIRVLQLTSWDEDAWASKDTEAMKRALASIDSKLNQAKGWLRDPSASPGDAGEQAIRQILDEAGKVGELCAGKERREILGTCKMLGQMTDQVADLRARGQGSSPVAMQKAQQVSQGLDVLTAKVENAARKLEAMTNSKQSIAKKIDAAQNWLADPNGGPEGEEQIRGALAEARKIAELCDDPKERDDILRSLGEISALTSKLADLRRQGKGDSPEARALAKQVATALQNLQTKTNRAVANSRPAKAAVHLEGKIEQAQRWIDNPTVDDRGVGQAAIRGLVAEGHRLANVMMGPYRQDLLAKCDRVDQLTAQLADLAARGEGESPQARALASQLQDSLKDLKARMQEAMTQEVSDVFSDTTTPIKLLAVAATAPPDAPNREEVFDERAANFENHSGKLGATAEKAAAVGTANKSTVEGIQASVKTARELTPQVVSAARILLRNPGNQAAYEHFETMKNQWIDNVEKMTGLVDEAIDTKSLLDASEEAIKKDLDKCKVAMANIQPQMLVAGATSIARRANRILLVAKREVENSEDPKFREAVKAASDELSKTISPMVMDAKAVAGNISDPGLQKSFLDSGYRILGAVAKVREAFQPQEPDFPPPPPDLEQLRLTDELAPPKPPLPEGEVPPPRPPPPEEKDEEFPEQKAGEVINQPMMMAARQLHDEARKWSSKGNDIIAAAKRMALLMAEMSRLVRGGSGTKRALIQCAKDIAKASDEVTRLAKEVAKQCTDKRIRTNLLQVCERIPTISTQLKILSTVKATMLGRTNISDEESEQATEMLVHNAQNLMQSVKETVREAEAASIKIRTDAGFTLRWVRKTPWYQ


Tests used:
[1] = target: T2, talin H1-H4 (Homo sapiens, UniProt Q9Y490); experiment: Isothermal titration calorimetry; type: binding; conditions: 25° C.; for ΔG free enthalpy / ΔH enthalpy / −TΔS entropic contribution / Kd: ITC; for Kd: read-out: KD (affinity constant)
Procedure: Vinculin, IpaA proteins and peptides were extensively dialyzed in binding buffer (25 mM Tris pH 7.4, 100 mM NaCl and 1 mM β-Mercaptoethanol). The final concentration of all proteins/peptides was measured using a BCA test (Thermo Scientific). Talin-IpaA binding was measured by microcalorimetry using an ITC200 calorimeter (MicroCal) at 25° C. 200 μL of 20-100 μM of talin H1-H4 protein was added to the cell and binding in the presence of different concentrations of IpaA VBS1, VBS2 or VBS3 peptides was measured. In other experiments, 200 μL of a 16 μM equimolar mix of A483:HVD1 was incubated for one hour at room temperature prior to addition to the cell. Binding to talin H1-H4 (100 μM) was measured. Typically, 20-40 injections of 2 μL of ligand were made with intervals of 320 seconds between each addition, with a reference power of 12 μcal/sec. Data were analyzed using the MicroCal software provided by manufacturer.

[2] = target: T2, talin H1-H4; experiment: SEC-MALS; type: binding; conditions: 20 μM equimolar
Procedure: The purified proteins IpaA 483-633 (A483), IpaA 524-633 (A524) and Talin H1-H4 (TlnH1-H4) were used at 20 μM equimolar concentrations and incubated at 4° C. for one hour in binding buffer (25 mM Tris-HCL pH 7.0, 100 mM NaCl and 1 mM β-Mercaptoethanol). The protein mixtures (200 μL) were analyzed by size-exclusion chromatography (SEC) on a Superdex 200 10/300 GL (GE Healthcare) using a Shimadzu Prominence HPLC. Multi-angle laser light scattering (MALS) was measured with a MiniDAWN TREOS (Wyatt Technology). Refractometry was monitored using an Optilab T-rEX (Wyatt Technology).

[3] = target: T1, full-length vinculin (HV); experiment: ELISA solid phase binding assay; conditions: IpaA construct immobilized on the solid phase, HV as soluble ligand
Procedure: 96-well Maxisorp (Nunc) ELISA plates were coated with 30 nM full-length vinculin, vinculin constructs or IpaA proteins in binding buffer (25 mM Tris pH 7.4, 100 mM NaCl and 1 mM β-Mercaptoethanol). The wells were blocked with PBS-BSA 2%, washed and incubated with half series dilutions of IpaA or vinculin proteins in binding buffer+0.2% BSA at room temperature for one hour. After incubation the plates were washed and incubated with an anti-IpaA (dilution: 1/2000) polyclonal primary antibody (Tran Van Nhieu et al., 1997. EMBO J. 16(10):2717-29) or anti-vinculin (dilution: 1/2000) m11.5 monoclonal primary antibody (ref. V4505, Sigma-Aldrich) in binding buffer+0.2% BSA for one hour at room temperature. Plates were washed and incubated with an HRP-coupled secondary anti-rabbit or anti mouse Ig antibodies (dilution: 1/32000, Jackson ImmunoResearch) for one hour.

[4] = system: melanocytes; experiment: Matrigel invasion assay; type: cell-based; conditions: 24-hour incubation, three independent experiments
Procedure: Cells were transfected by GFP-A524, GFP-A483 or Mock-transfected (without DNA, as a control).
Cells were further trypsinized, collected, and deposited in a matrigel insert. Following a 24-hour incubation, the matrigel was remove, the membrane was fixed and processed for fluorescence straining of cell nuclei with DAPI. Cells that transmigrated across the matrigel were scored (FIG. 24B).

[5] = target: T2, talin H1-H4; experiment: Native-PAGE gel shift; type: binding
Procedure: Talin H1-H4 and IpaA peptides/proteins were incubated in binding buffer for 1 hour at 4° C. After incubation, the protein/peptides were mixed in a 2× Native loading buffer (62.5 mM Tris pH 6.8, Glycerol 25%) and separated by Tris-Glycine Native-PAGE electrophoresis. Gels were stained using standard colloidal Coomassie stain.
Talin H1-H4 and IpaA peptides/proteins at different molar ratios were incubated in binding buffer (25 mM Tris pH 7.4, 100 mM NaCl and 1 mM β-Mercaptoethanol) for 1 hour at 4° C. After incubation, the protein/peptides were mixed in a 2× Native loading buffer (62.5 mM Tris pH 6.8, Glycerol 25%) and separated by Tris-Glycine Native-PAGE electrophoresis. The Native PAGE electrophoresis gels were stained using standard colloidal Coomassie stain.

T2 sequence (Q9Y490 482-636): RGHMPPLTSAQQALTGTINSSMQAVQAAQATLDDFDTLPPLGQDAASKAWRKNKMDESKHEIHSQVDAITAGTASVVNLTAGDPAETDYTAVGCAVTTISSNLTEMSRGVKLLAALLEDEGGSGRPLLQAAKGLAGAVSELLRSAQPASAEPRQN

Molecule	ΔG free enthalpy [1] [cal/mol]	ΔH enthalpy [1] [cal/mol]	−TΔS entropic contribution [1] [cal/mol]	Kd ([1]; listed as A483 (VBS3)) [nM]	Kd [1] [nM]	complex formation with talin H1-H4 in solution [2]	ligand concentration at which the saturation curve plateaus [3] [nM]	number of cells which migrated across a matrigel [4] [cells]	concentration at which the complex with talin H1-H4 / migration shift could be detected [5] [µM]	N (stoichiometry) ([1]; ITC non-linear fit)	formation of a complex with talin H1-H4 [5]
A483: amino acids 483 to 633 of SEQ ID NO: 1 (IpaA), containing IpaA VBS1, VBS2 and VBS3 (protein, listed as Shigella flexneri, A483 / IpaA (483-633)) GDTYLTRETIFEASKKVTNSLSNLISLIGTKSGTQERELQEKSKDITKSTTEHRINNKLKVTDANIRNYVTETNADTIDKNHAIYEKAKEVSSALSKVLSKIDDTSAELLTDDISDLKNNNDITAENNNIYKAAKDVTTSLSKVLKNINKD	-10025	-6229	-3796	24.9	24.9	compact globular complex corresponding to one talin H1-H4 dimer bound to one A483 molecule	25	120	≤ 5		
A524: IpaA 524-633, containing only IpaA VBS1 and VBS2 (protein, listed as Shigella flexneri, A524 / IpaA (524-633), IpaA 524-633, containing only IpaA VBS1 and VBS2) KSKDITKSTTEHRINNKLKVTDANIRNYVTETNADTIDKNHAIYEKAKEVSSALSKVLSKIDDTSAELLTDDISDLKNNNDITAENNNIYKAAKDVTTSLSKVLKNINKD	-7448	-3979	-3469		2030	absence of complex formation	25	96		1.5	no migration shift could be detected
